This is an account of results in US8840892B2, “Method of administering antibiotic therapy for treating intracellular infectious diseases” (Universidad Nacional Autónoma de México, priority 2003, dated 2014).

For data set [1] the following is noted: mouse, in vivo.
The test system of data set [2] is Mycobacterium tuberculosis. Kind of data set: experimental model of pulmonary tuberculosis in BALB/c mice. The format is in vivo.
The test system of the next data set is PGE formation (COX-2). Kind of data set: inhibition of PGE formation by selective COX-2 inhibitors.
The next data set deals with TGF-β. The conditions noted are these: recombinant soluble form, in vitro; cited from earlier work.

On to `COc1ccc2c(c1)c(CC(=O)O)c(C)n2C(=O)c1ccc(Cl)cc1` [indometacine], for which the gastric side effect entry in data set [1] is given as “extensive erosive gastritis”.

Regarding `O=C(O)c1cccnc1Nc1cccc(C(F)(F)F)c1` [niflumic acid, reference compound], in data set [2] (mouse, in vivo), the “bacteria colony forming units (CFU) in lung” value is listed as “decreased significantly”; the “decrease of the area affected by pneumonia in relation to the control group” value stood at 25%; the “expression of IL-2, TNF-α, IFN-γ and nitric acid synthetase (increase) and interleukin 10 (decrease)” value is given as “same pattern”. For the same molecule, the “inhibition of the formation of PGE” value in the data set on PGE formation (COX-2) is on record as 98%.

B1: soluble betaglycan: soluble (recombinant) ectodomain of betaglycan, TGF-β type III receptor; natural antagonist of TGF-β (protein, UniProt Q03167 21-787, looked up)
extracellular domain: GPEPGALCELSPVSASHPVQALMESFTVLSGCASRGTTGLPQEVHVLNLRTAGQGPGQLQREVTLHLNPISSVHIHHKSVVFLLNSPHPLVWHLKTERLATGVSRLFLVSEGSVVQFSSANFSLTAETEERNFPHGNEHLLNWARKEYGAVTSFTELKIARNIYIKVGEDQVFPPKCNIGKNFLSLNYLAEYLQPKAAEGCVMSSQPQNEEVHIIELITPNSNPYSAFQVDITIDIRPSQEDLEVVKNLILILKCKKSVNWVIKSFDVKGSLKIIAPNSIGFGKESERSMTMTKSIRDDIPSTQGNLVKWALDNGYSPITSYTMAPVANRFHLRLENNAEEMGDEEVHTIPPELRILLDPGALPALQNPPIRGGEGQNGGLPFPFPDISRRVWNEEGEDGLPRPKDPVIPSIQLFPGLREPEEVQGSVDIALSVKCDNEKMIVAVEKDSFQASGYSGMDVTLLDPTCKAKMNGTHFVLESPLNGCGTRPRWSALDGVVYYNSIVIQVPALGDSSGWPDGYEDLESGDNGFPGDMDEGDASLFTRPEIVVFNCSLQQVRNPSSFQEQPHGNITFNMELYNTDLFLVPSQGVFSVPENGHVYVEVSVTKAEQELGFAIQTCFISPYSNPDRMSHYTIIENICPKDESVKFYSPKRVHFPIPQADMDKKRFSFVFKPVFNTSLLFLQCELTLCTKMEKHPQKLPKCVPPDEACTSLDASIIWAMMQNKKTFTKPLAVIHHEAESKEKGPSMKEPNPISPPIFHGLDTLTV
modifications: extracellular domain
Take B1: the “neutralization of the effects of TGF-β” value in the data set with TGF-β was “potent neutralizing agent”. Besides, the “extent of pneumonia (in words)” value in data set [2] (advanced phase of infection) is “increased”. Besides, the “bacteria colony forming units (CFU) in lung” value in data set [2] (after 30 days of treatment, vs untreated control) is “decreased significantly”. Further, the “CFU less than control group” value in data set [2] (after 60 days of treatment) is reported as 50%. For the same molecule, in data set [2] (after two months of treatment, increase vs untreated control), the “more pneumonia than the control group” value was found to be 30%. Further, the “bacillary load / amount of tuberculosis bacilli in the lung (in words)” value in data set [2] (intraperitoneal, advanced phase of the disease) is reported as “significant decrease”.
